Where no end group is shown, it is not given here. The star is where a group is joined. Biotin = O=C1N[C@H]2[C@H](CS[C@H]2CCCCC(=O)*)N1
Biological target: human vitamin D nuclear receptor ligand-binding domain, hexahistidine-tagged (6xHis-VDR-LBD) (human)
Assay: AlphaScreen or HTRF; 100 nM 6xHis-VDR-LBD on Ni2+-chelate acceptor beads, 20 nM biotinylated TIF2-3 peptide on streptavidin donor beads; increasing concentrations of 1α,25(OH)2D3 or 1α,25(OH)2-3-epi-D3 (1% DMSO); 50 mM MOPS pH 7.4, 50 mM NaF, 50 mM CHAPS, 100 µg/ml BSA

EC50 of the ligand 1α,25(OH)2-3-epi-D3 for induced recruitment of the peptide: 2.5 nM
EC50 of the ligand 1α,25(OH)2D3 for induced recruitment of the peptide: 1.2 nM
Binder: Biotin-QEPVSPKKKENALLRYLLDKDDTKD [human TIF2-3 biotinylated peptide (TIF2 coactivator peptide bearing the 3rd LXXLL motif)]

Source: article PMC3069065
